Measured values taken from article PMC2571106 (BMC Microbiology, 2008).

Key:
[1] = target: the molecule itself; test: precipitation after dialysis from GHCl (self-assembly test); affinity purified protein dissolved in 5 M GHCl at 1 mg/ml, dialysed against PBS for two hours at 4°C, centrifuged 16,000 x g 30 min, precipitate checked by SDS-PAGE
[2] = target: the molecule itself; test: transmission electron microscopy of self-assembly products (negative stain); 1 mg purified, lyophilised recombinant protein in 1 ml 5 M GHCl, 50 mM Tris-HCl pH 7.2, dialysed against 10 mM CaCl2 in distilled water for 18 h; negative stain with 2,5% uranyl acetate
[3] = target: the molecule itself; test: transmission electron microscopy of self-assembly products (negative stain); SlpA extracted from L. brevis cells with 2 M GHCl, 1 mg/ml, dialysed against water with 5 mM CaCl2 and then water at +4°C; pelleted self-assembly products in 25 mM Tris-HCl pH 8.0

Protein | binding result [1] | further results
rSlpA_(146-435) (domain or fragment, Lactobacillus brevis ATCC 8287, UniProt Q05044 176-465, looked up, numbers count on: the mature protein; Cloned through an NcoI site; the primer may add residues at the N-terminus (surmise from primer 1602); source: E. coli BL21(DE3), purified (His Trap HP in 4 M GHCl or 6 M urea)) LYGVAKDTKFTVDQAATKTREGSLYYHVTATNGSGISGWIYAGKGFSTTATGTQVLGGLSTDKSVTATNDNSVKIVYRTTDGTQVGSNTWVTSTDGTKAGSKVSDKAADQTALEAYINANKPSGYTVTNPNAADATYGNTVYATVSQAATSKVALKVSGTPVTTALTTADANDKVAANDTTANGSSVAGSTVYAAGTKLAQLTTDLTGEKGQVVTLTAIDTDLEDATFTGTTTYYSDLGKAYHYTYTYNKDSAASSNASTQFGSNVTGTLTATLVMGKSTATANGTTWFN | binds | –
rSlpA_(179-435) (domain or fragment, Lactobacillus brevis ATCC 8287, UniProt Q05044 209-465, looked up, numbers count on: the mature protein; also called rSlpA C-terminal domain; source: E. coli BL21(DE3), purified (His Trap HP in 4 M GHCl or 6 M urea)) SGISGWIYAGKGFSTTATGTQVLGGLSTDKSVTATNDNSVKIVYRTTDGTQVGSNTWVTSTDGTKAGSKVSDKAADQTALEAYINANKPSGYTVTNPNAADATYGNTVYATVSQAATSKVALKVSGTPVTTALTTADANDKVAANDTTANGSSVAGSTVYAAGTKLAQLTTDLTGEKGQVVTLTAIDTDLEDATFTGTTTYYSDLGKAYHYTYTYNKDSAASSNASTQFGSNVTGTLTATLVMGKSTATANGTTWFN | binds | –
full length recombinant SlpA (SlpA 1-435), S-layer protein of Lactobacillus brevis ATCC 8287 (natural protein, UniProt Q05044 31-465, looked up, numbers count on: the mature protein; Two full length constructs were made: pKTH5198 (C-terminal linker-His6) and pKTH5199 (N-terminal His6-linker); no cleavage is mentioned; also called rSlpA; nontruncated rSlpA; source: E. coli BL21(DE3), purified (His Trap HP in 4 M GHCl or 6 M urea)) KSYATAGAYSTLKTDAATRNVEATGTNALYTKPGTVKGAKVVASKATMAKLASSKKSADYFRAYGVKTTNRGSVYYRVVTMDGKYRGYVYGGKSDTAFAGGIKSAETTTKADMPARTTGFYLTDTSKNTLWTAPKYTQYKASKVSLYGVAKDTKFTVDQAATKTREGSLYYHVTATNGSGISGWIYAGKGFSTTATGTQVLGGLSTDKSVTATNDNSVKIVYRTTDGTQVGSNTWVTSTDGTKAGSKVSDKAADQTALEAYINANKPSGYTVTNPNAADATYGNTVYATVSQAATSKVALKVSGTPVTTALTTADANDKVAANDTTANGSSVAGSTVYAAGTKLAQLTTDLTGEKGQVVTLTAIDTDLEDATFTGTTTYYSDLGKAYHYTYTYNKDSAASSNASTQFGSNVTGTLTATLVMGKSTATANGTTWFN | – | binding result [2]: binds
wild type SlpA isolated from L. brevis ATCC 8287 cells (natural protein, Lactobacillus brevis ATCC 8287, UniProt Q05044 31-465, looked up, numbers count on: the mature protein; source: extracted from L. brevis ATCC 8287 cells with 2 M GHCl, dialysed) KSYATAGAYSTLKTDAATRNVEATGTNALYTKPGTVKGAKVVASKATMAKLASSKKSADYFRAYGVKTTNRGSVYYRVVTMDGKYRGYVYGGKSDTAFAGGIKSAETTTKADMPARTTGFYLTDTSKNTLWTAPKYTQYKASKVSLYGVAKDTKFTVDQAATKTREGSLYYHVTATNGSGISGWIYAGKGFSTTATGTQVLGGLSTDKSVTATNDNSVKIVYRTTDGTQVGSNTWVTSTDGTKAGSKVSDKAADQTALEAYINANKPSGYTVTNPNAADATYGNTVYATVSQAATSKVALKVSGTPVTTALTTADANDKVAANDTTANGSSVAGSTVYAAGTKLAQLTTDLTGEKGQVVTLTAIDTDLEDATFTGTTTYYSDLGKAYHYTYTYNKDSAASSNASTQFGSNVTGTLTATLVMGKSTATANGTTWFN | – | binding result [3]: binds
